Measurements taken from paper PMC8163987.

Target: cytoplasmic region of YhcB from Haemophilus ducreyi (residues 31 to 128) with I51M and L72M mutations (Haemophilus ducreyi) (UniProt Q7VLF5)
Test: crystal structure; microbatch under paraffin oil, 2.0 M ammonium sulfate; SAD phasing of selenomethionine-labeled protein; 2.8 Å

## cytoplasmic region of YhcB from Haemophilus ducreyi (residues 31 to 128) with I51M and L72M mutations (from UniProt Q7VLF5 31-128) (domain or fragment)
  stoichiometry N: 4
